According to the RNAGym collection of RNA variant scans (doi:10.1073/pnas.2313332121):
Fewer inactive variants are shown than the library holds.

B1: TPR 5TU (parent)
chain: GGAUCUUCUCGAUCUAACAAAAAAGACAAAUCUGCCACAAAGCUUGAGAGCAUCUUCGGAUGCAGAGGCGGCAGCCUUCGGUGGCGCGAUAGCGCCAACGUUCUCAACUAUGACACGCAAAACGCGUGCUCCGUUGAAUGGAGUUUAUCAUG

Variants of: B1
Assay: polymerase ribozyme fitness, log enrichment relative to wild type (log ratio); higher = more active; in vitro selection for triplet polymerase activity
In short: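 Genotype fitness is the logarithm of its enrichment divided by wild-type enrichment, using inverse-variance-weighted averages of replicates. That logarithm is base 2. Enrichment was measured by Illumina sequencing of input and output libraries from one triplicate in vitro selection round, with frozen incubation at −7 °C, on PCR-built, transcribed mutant libraries of each subunit of a heterodimeric triplet polymerase ribozyme, retaining genotypes with ≥10 input reads and ≥1 read per output.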

Variant | polymerase ribozyme fitness (log ratio)
A17G A60G C85G A89U | -2.31
A21G G81U C95A C96A A98U U145A | -1.34
U13A C18G A30G G65U A91G A115C C118U U144G | ≤ -4.2
C38A G58C C87U | -0.072
A16C A26G C35A A52G C87U | -3.98
A98G A115G U135G | -3.81
C54A G94C A138C | ≤ -4.2
A40U A137U G140C | -4.19
A12U C54U U134A U145G | -3.56
C5U G84A C95A | 0.351
C14U A17G G70C G80A A137U | ≤ -4.2
A20C G136A | -0.55
A17U A40C C43G A52G G92C G128C | ≤ -4.2
U33A C96A | ≤ -4.2
G81A A89U G112A G133U C149U | ≤ -4.2
C76A U135C | -1.96
C43U C57G G70A A89G C93U | ≤ -4.2
U13G C35A A52C | ≤ -4.2
G11U A37U C87A | -4.14
C38U U82C C85U U90G C99U C105U C108G A120G | ≤ -4.2
C108U A142C | -3.43

Variant | polymerase ribozyme fitness (log ratio)
A49C G50C G67C C72G G84A C108A A142G A147U | ≤ -4.2
G84A A142C | -1.65
C54A U144G | -0.801
U61A G124C | -2
A52C U55C G83A U151A G152A | ≤ -4.2
A24U U55C C85A | -1.34
G80A G141A | -0.333
U33G C116U | -2.7
G81A | -0.305
C36A U56A C57A A122G U127C | ≤ -4.2
A39U G48C G67A C85G G86U G88A G92A C118G | ≤ -4.2
A40U C69A G143C | -2.79
A12U A28U A41U U53G U56G G84A A91G C93G G140U | ≤ -4.2
A19U A40C G81C C96G | -1.25
C72G C96U C116U | ≤ -4.2
U82G A121G | -0.49
A47U U101G C116G | -2.38
A22C C85G U109A | -3.43
G65A C75A G81U G94A C105U G140U | -3.7
U56A G83U C93G | ≤ -4.2
U7C A19C C57G C85U C96U U148A | ≤ -4.2

Variant | polymerase ribozyme fitness (log ratio)
G42C U44A G70C C96U G126U G141A | ≤ -4.2
C63A A120U G124C | -2.49
C27G C125A | -3.93
A12G U45G C69G A91C A115G G133A G143U | ≤ -4.2
A23U C76G | ≤ -4.2
A64C G71A A107G G141C | ≤ -4.2
G83C C95G U148G | ≤ -4.2
C38U C95A C108U C132U | -3.39
G112C | -2.68
A37U G94A | -1
A12G A24U U53A U82G G84A A89U | -3.13
A41C A66U C87A A91U C103G A142U U145C | ≤ -4.2
G42C U55A G70C C96U | ≤ -4.2
U53C A73G G84A U109G G140C | ≤ -4.2
C114G G140C G141U | ≤ -4.2
A22U A29G G70A | ≤ -4.2
U7A A17U A19C C38U G58U G86A G92C | ≤ -4.2
C8U A52G C85A A119U U130G | ≤ -4.2
U33A U56A C75G G81U G83A U127A | ≤ -4.2
C95U G100U U104G C114U G141C A150C | ≤ -4.2
A91U G141A U144G | ≤ -4.2

Variant | polymerase ribozyme fitness (log ratio)
C51U G59C C72A | ≤ -4.2
A40C C76U C93G G152A | ≤ -4.2
C36A C96U U111G | ≤ -4.2
A16U A120G | -2.64
G34U C79G G92U C93G U109A G143C | ≤ -4.2
A52C C72U C96A C123U | -2.72
A20G A29U C51A A106C A113U | -4.2
U7G U15A A41U A66C G94U C99G G133U U148G | ≤ -4.2
G48C U53C C87U U145C | -2.69
U6C A49G G59A G92A U111A | ≤ -4.2
U53A C96U | -1.85
C5U A19C A39G G80C C87U C105G U135A | ≤ -4.2
C57A U104G A120U | -0.824
A21C C87U A147U | 0.884
U82G C85A C95U U146A A150U | -1.37
G84U U104G | -2.26
C35U C116A | -0.104
G42A C43A G48A G50C A66C C85U | ≤ -4.2
U9C U55G | -3.53
U7G U15A G58U G70C A91G | ≤ -4.2
A28C U61A U134A U148C | ≤ -4.2
